Source: patent publication US11833164B2, “Methods of treating Fabry disease in patients having a mutation in the GLA gene” (Amicus Therapeutics, Inc., priority 2019, dated 2023)
Numbering of substitutions follows the chain as printed. In names and notes the source's numbering stands.

B1: Y329F (protein)
chain: MQLRNPELHLGCALALRFLALVSWDIPGARALDNGLARTPTMGWLHWERFMCNLDCQEEPDSCISEKLFMEMAELMVSEGWKDAGYEYLCIDDCWMAPQRDSEGRLQADPQRFPHGIRQLANYVHSKGLKLGIYADVGNKTCAGFPGSFGYYDIDAQTFADWGVDLLKFDGCYCDSLENLADGYKHMSLALNRTGRSIVYSCEWPLYMWPFQKPNYTEIRQYCNHWRNFADIDDSWKSIKSILDWTSFNQERIVDVAGPGGWNDPDMLVIGNFGLSWNQQVTQMALWAIMAAPLFMSNDLRHISPQAKALLQDKDVIAINQDPLGKQGFQLRQGDNFEVWERPLSGLAWAVAMINRQEIGGPRSYTIAVASLGKGVACNPACFITQLLPVKRKLGFYEWTSRLRSHINPTGTVLLQLENTMQMSLKDLL
B2: R332G (protein)
chain: B1 chain with F329Y, R332G
B3: R332T (protein)
chain: B1 chain with F329Y, R332T
B4: G334V (protein)
chain: B1 chain with F329Y, G334V
B5: Y329H (protein)
chain: B1 chain with F329H
B6: L331V (protein)
chain: B1 chain with F329Y, L331V
B7: L331P (protein)
chain: B1 chain with F329Y, L331P
B8: Q333L (protein)
chain: B1 chain with F329Y, Q333L
B9: R332I (protein)
chain: B1 chain with F329Y, R332I
B10: Q333E (protein)
chain: B1 chain with F329Y, Q333E
B11: Q333P (protein)
chain: B1 chain with F329Y, Q333P
B12: L331H (protein)
chain: B1 chain with F329Y, L331H
B13: R332S (protein)
chain: B1 chain with F329Y, R332S
B14: D335A (protein)
chain: B1 chain with F329Y, D335A
B15: D335E (protein)
chain: B1 chain with F329Y, D335E
B16: G334R (protein)
chain: B1 chain with F329Y, G334R
B17: Q330H (protein)
chain: B1 chain with F329Y, Q330H
B18: Q330K (protein)
chain: B1 chain with F329Y, Q330K
B19: Y329N (protein)
chain: B1 chain with F329N
B20: L331R (protein)
chain: B1 chain with F329Y, L331R
B21: Q330E (protein)
chain: B1 chain with F329Y, Q330E

tested on: mutant form of α-Gal A expressed in HEK-293 cells; assay: HEK assay (GLP HEK / Migalastat Amenability Assay): α-Gal A activity in lysates of transiently transfected HEK-293 cells incubated with or without 10 μM migalastat; format: cell-based, human; settings: 10 μM migalastat versus baseline
Summary of the method: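 HEK-293 cells transiently transfected with mutant α-Gal A and incubated with or without 10 μM migalastat; lysate activity given as nmol free 4-MU released per mg protein per hour. Values are mean±SEM.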

Going from B1 to B2, the “Absolute increase (% WT)” value rises from 16.6 % WT to 23.4 % WT.

First: B3
Second: B4
The “Absolute increase (% WT)” value of the first is higher: 36.2 % WT for the first, 13.7 % WT for the second.

Compared with B5, B6 is higher in “Absolute increase (% WT)” value: 16.2 % WT for the first, 28.0 % WT for the second.

Going from B7 to B8, the “Absolute increase (% WT)” value rises from 3.1 % WT to 24.7 % WT.

First: B9
Second: B10
The “Absolute increase (% WT)” value of the first is higher: 43.2 % WT for the first, 23.5 % WT for the second.

Going from B11 to B12, the “Absolute increase (% WT)” value falls from 31.0 % WT to 25.9 % WT.

First: B13
Second: B14
The “Absolute increase (% WT)” value of the first is lower: 20.5 % WT for the first, 27.7 % WT for the second.

First: B15
Second: B16
The “Absolute increase (% WT)” value of the first is higher: 17.7 % WT for the first, 17.5 % WT for the second.

Compared with B17, B18 is lower in “Absolute increase (% WT)” value: 40.8 % WT for the first, 21.1 % WT for the second.

Going from B19 to B20, the “Absolute increase (% WT)” value rises from 15.6 % WT to 23.3 % WT.

With B21 the “Absolute increase (% WT)” value was 19.9 % WT.

Compared with B1, B2 is lower in Relative increase: 1.5 for the first, 1.3 for the second.

Compared with B3, B4 is lower in Relative increase: 1.5 for the first, 1.2 for the second.

Going from B5 to B6, the Relative increase falls from 1.4 to 1.3.

First: B7
Second: B8
The Relative increase of the first is higher: 6.5 for the first, 1.3 for the second.

First: B9
Second: B10
The Relative increase of the first is higher: 1.7 for the first, 1.3 for the second.

First: B11
Second: B12
The Relative increase of the first is higher: 1.9 for the first, 1.6 for the second.

First: B13
Second: B14
The Relative increase of the first is lower: 1.2 for the first, 1.6 for the second.

Compared with B15, B16 is lower in Relative increase: 1.3 for the first, 1.2 for the second.

First: B17
Second: B18
The Relative increase of the first is higher: 2.2 for the first, 1.3 for the second.

Compared with B19, B20 is lower in Relative increase: 1.7 for the first, 1.6 for the second.

B21 gave a Relative increase of 1.7.

same assay, conditions: absence of migalastat; percentage of baseline wild-type α-Gal A activity; mean ± SEM

Compared with B1, B2 is higher in “Baseline α-Gal A activity (% WT)” value: 30.6 ± 1.5 % WT for the first, 78.8 ± 2.7 % WT for the second.

B3 and B4 are within error of each other in “Baseline α-Gal A activity (% WT)” value: 73.3 ± 2.9 % WT for the first, 68.4 ± 3.2 % WT for the second.

Compared with B5, B6 is higher in “Baseline α-Gal A activity (% WT)” value: 47.2 ± 3.8 % WT for the first, 89.4 ± 4.5 % WT for the second.

Going from B7 to B8, the “Baseline α-Gal A activity (% WT)” value rises from 0.6 ± 0.1 % WT to 68.6 ± 2.9 % WT.

Compared with B9, B10 is higher in “Baseline α-Gal A activity (% WT)” value: 63.3 ± 4.5 % WT for the first, 77.8 ± 5.3 % WT for the second.

Going from B11 to B12, the “Baseline α-Gal A activity (% WT)” value rises from 30.3 ± 1.7 % WT to 42 ± 3.2 % WT.

Compared with B13, B14 is lower in “Baseline α-Gal A activity (% WT)” value: 87.6 ± 6.6 % WT for the first, 57.9 ± 3 % WT for the second.

Going from B15 to B16, the “Baseline α-Gal A activity (% WT)” value falls from 68.7 ± 4.8 % WT to 58.9 ± 4.6 % WT.

Compared with B17, B18 is higher in “Baseline α-Gal A activity (% WT)” value: 33.1 ± 2.8 % WT for the first, 71 ± 2.7 % WT for the second.

First: B19
Second: B20
The “Baseline α-Gal A activity (% WT)” value of the first is lower: 21.8 ± 1.5 % WT for the first, 33.2 ± 1.5 % WT for the second.

With B21 the “Baseline α-Gal A activity (% WT)” value was 26.4 ± 1.5 % WT.

same assay, conditions: lysates of HEK-293 cells transiently transfected with the mutant form, incubated 5 days in absence of migalastat; mean ± SEM

First: B1
Second: B2
The “Baseline α-Gal A activity” value of the first is lower: 10368 ± 646 nmol/mg/h for the first, 33043 ± 1431 nmol/mg/h for the second.

Going from B3 to B4, the “Baseline α-Gal A activity” value rises from 26141 ± 1254 nmol/mg/h to 31991 ± 2390 nmol/mg/h.

Going from B5 to B6, the “Baseline α-Gal A activity” value rises from 13757 ± 963 nmol/mg/h to 25163 ± 801 nmol/mg/h.

Going from B7 to B8, the “Baseline α-Gal A activity” value rises from 157 ± 20 nmol/mg/h to 25450 ± 2094 nmol/mg/h.

Going from B9 to B10, the “Baseline α-Gal A activity” value rises from 24614 ± 1678 nmol/mg/h to 30291 ± 2094 nmol/mg/h.

B11 and B12 are within error of each other in “Baseline α-Gal A activity” value: 11819 ± 1039 nmol/mg/h for the first, 11743 ± 634 nmol/mg/h for the second.

Going from B13 to B14, the “Baseline α-Gal A activity” value falls from 33936 ± 2528 nmol/mg/h to 21055 ± 1662 nmol/mg/h.

B15 and B16 are within error of each other in “Baseline α-Gal A activity” value: 30532 ± 1962 nmol/mg/h for the first, 25886 ± 3237 nmol/mg/h for the second.

Compared with B17, B18 is higher in “Baseline α-Gal A activity” value: 9296 ± 649 nmol/mg/h for the first, 20289 ± 720 nmol/mg/h for the second.

Going from B19 to B20, the “Baseline α-Gal A activity” value rises from 6448 ± 436 nmol/mg/h to 9725 ± 634 nmol/mg/h.

B21 was tested, and the “Baseline α-Gal A activity” value was 7500 ± 345 nmol/mg/h.

same assay, conditions: lysates of HEK-293 cells transiently transfected with the mutant form, incubated 5 days with 10 μM migalastat; mean ± SEM

Going from B1 to B2, the “10 μM migalastat α-Gal A activity” value rises from 15566 ± 603 nmol/mg/h to 42737 ± 1959 nmol/mg/h.

B3 and B4 are within error of each other in “10 μM migalastat α-Gal A activity” value: 39363 ± 2176 nmol/mg/h for the first, 38301 ± 2744 nmol/mg/h for the second.

Going from B5 to B6, the “10 μM migalastat α-Gal A activity” value rises from 18672 ± 772 nmol/mg/h to 33050 ± 967 nmol/mg/h.

Going from B7 to B8, the “10 μM migalastat α-Gal A activity” value rises from 1029 ± 32 nmol/mg/h to 33727 ± 1965 nmol/mg/h.

B9 and B10 are within error of each other in “10 μM migalastat α-Gal A activity” value: 41550 ± 2461 nmol/mg/h for the first, 38709 ± 2428 nmol/mg/h for the second.

Going from B11 to B12, the “10 μM migalastat α-Gal A activity” value falls from 22746 ± 1255 nmol/mg/h to 19003 ± 791 nmol/mg/h.

First: B13
Second: B14
The “10 μM migalastat α-Gal A activity” value of the first is higher: 41700 ± 2778 nmol/mg/h for the first, 33829 ± 4641 nmol/mg/h for the second.

Going from B15 to B16, the “10 μM migalastat α-Gal A activity” value falls from 39124 ± 2722 nmol/mg/h to 31174 ± 2016 nmol/mg/h.

Compared with B17, B18 is higher in “10 μM migalastat α-Gal A activity” value: 20752 ± 592 nmol/mg/h for the first, 26149 ± 1074 nmol/mg/h for the second.

Compared with B19, B20 is higher in “10 μM migalastat α-Gal A activity” value: 11035 ± 429 nmol/mg/h for the first, 15841 ± 639 nmol/mg/h for the second.

For B21, the “10 μM migalastat α-Gal A activity” value was 13086 ± 589 nmol/mg/h.

same assay, conditions: with 10 μM migalastat, 5 days; percentage of baseline wild-type α-Gal A activity; mean ± SEM

First: B1
Second: B2
The “10 μM migalastat α-Gal A activity (% WT)” value of the first is lower: 47.1 ± 2.8 % WT for the first, 102.3 ± 4.6 % WT for the second.

First: B3
Second: B4
The “10 μM migalastat α-Gal A activity (% WT)” value of the first is higher: 109.5 ± 4.7 % WT for the first, 82.1 ± 3.8 % WT for the second.

First: B5
Second: B6
The “10 μM migalastat α-Gal A activity (% WT)” value of the first is lower: 63.4 ± 2.6 % WT for the first, 117.4 ± 5.6 % WT for the second.

First: B7
Second: B8
The “10 μM migalastat α-Gal A activity (% WT)” value of the first is lower: 3.7 ± 0.2 % WT for the first, 93.3 ± 4.1 % WT for the second.

B9 and B10 are within error of each other in “10 μM migalastat α-Gal A activity (% WT)” value: 106.6 ± 6.4 % WT for the first, 101.3 ± 7.6 % WT for the second.

B11 and B12 are within error of each other in “10 μM migalastat α-Gal A activity (% WT)” value: 61.3 ± 3.9 % WT for the first, 67.9 ± 4.3 % WT for the second.

Compared with B13, B14 is lower in “10 μM migalastat α-Gal A activity (% WT)” value: 108.1 ± 8.4 % WT for the first, 85.6 ± 6.9 % WT for the second.

Compared with B15, B16 is lower in “10 μM migalastat α-Gal A activity (% WT)” value: 86.5 ± 4.5 % WT for the first, 76.4 ± 2.7 % WT for the second.

Compared with B17, B18 is higher in “10 μM migalastat α-Gal A activity (% WT)” value: 73.9 ± 3.6 % WT for the first, 92.1 ± 4.2 % WT for the second.

First: B19
Second: B20
The “10 μM migalastat α-Gal A activity (% WT)” value of the first is lower: 37.4 ± 1.2 % WT for the first, 56.5 ± 3.2 % WT for the second.

For B21, the “10 μM migalastat α-Gal A activity (% WT)” value was 46.4 ± 2.6 % WT.
